Assay results: patent publication US10513563

Target: transferrin receptor on H4IIE hepatoma cells (rat) (UniProt Q99376)
Assay: cell-based or functional assay

Sequence of UniProt Q99376 (Q99376 whole entry): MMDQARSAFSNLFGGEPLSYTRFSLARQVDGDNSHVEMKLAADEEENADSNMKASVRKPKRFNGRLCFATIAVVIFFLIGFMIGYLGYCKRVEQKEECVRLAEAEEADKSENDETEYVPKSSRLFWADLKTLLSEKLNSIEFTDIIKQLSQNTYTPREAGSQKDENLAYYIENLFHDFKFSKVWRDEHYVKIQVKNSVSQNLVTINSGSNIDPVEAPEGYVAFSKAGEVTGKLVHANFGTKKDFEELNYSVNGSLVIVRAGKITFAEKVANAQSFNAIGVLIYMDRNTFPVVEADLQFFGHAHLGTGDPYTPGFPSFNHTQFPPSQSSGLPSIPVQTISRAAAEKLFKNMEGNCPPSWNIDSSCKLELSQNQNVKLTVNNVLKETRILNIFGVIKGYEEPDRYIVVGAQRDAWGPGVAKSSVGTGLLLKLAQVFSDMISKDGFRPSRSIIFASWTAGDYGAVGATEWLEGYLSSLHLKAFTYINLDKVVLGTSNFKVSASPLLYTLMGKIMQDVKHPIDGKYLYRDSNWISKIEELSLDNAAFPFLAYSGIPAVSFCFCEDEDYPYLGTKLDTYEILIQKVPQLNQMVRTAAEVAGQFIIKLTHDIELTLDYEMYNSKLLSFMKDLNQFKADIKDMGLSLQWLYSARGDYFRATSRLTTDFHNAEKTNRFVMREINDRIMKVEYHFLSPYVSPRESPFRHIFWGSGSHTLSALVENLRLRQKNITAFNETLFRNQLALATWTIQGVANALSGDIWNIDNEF

## PI-Tf fusion protein (proinsulin-transferrin recombinant fusion protein)
  IC50 of inhibition of glucose production in H4IIE cells (24 hr treatment): 4.6 pM
  activity in inhibition of glucose production in H4IIE cells relative to proinsulin and insulin: 300 fold
